This is an account of results in patent US20200109196A1 (MOGAM INSTITUTE FOR BIOMEDICAL RESEARCH, published 2020).

To fix the notation:
T1: recombinant human CEACAM-6/CD66c protein (R&D systems; Cat. No. 3934-CM) (human, UniProt P40199 35-320)
T1 construct: Bought protein; also called HCCM6
T1 sequence (looked up): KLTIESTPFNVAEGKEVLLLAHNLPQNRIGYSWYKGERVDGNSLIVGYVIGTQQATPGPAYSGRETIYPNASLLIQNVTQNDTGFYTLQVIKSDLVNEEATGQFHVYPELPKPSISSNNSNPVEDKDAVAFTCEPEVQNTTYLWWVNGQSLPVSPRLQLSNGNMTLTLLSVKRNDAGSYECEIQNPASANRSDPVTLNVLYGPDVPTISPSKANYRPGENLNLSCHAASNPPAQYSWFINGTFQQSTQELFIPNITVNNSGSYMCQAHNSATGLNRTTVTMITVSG

T2: mCCM1
T2 construct: also called mouse CCM1; mouse CEACAM1/CD66a protein (Sino Biological); not shown: the vendor's polyhistidine tag
T2 chain: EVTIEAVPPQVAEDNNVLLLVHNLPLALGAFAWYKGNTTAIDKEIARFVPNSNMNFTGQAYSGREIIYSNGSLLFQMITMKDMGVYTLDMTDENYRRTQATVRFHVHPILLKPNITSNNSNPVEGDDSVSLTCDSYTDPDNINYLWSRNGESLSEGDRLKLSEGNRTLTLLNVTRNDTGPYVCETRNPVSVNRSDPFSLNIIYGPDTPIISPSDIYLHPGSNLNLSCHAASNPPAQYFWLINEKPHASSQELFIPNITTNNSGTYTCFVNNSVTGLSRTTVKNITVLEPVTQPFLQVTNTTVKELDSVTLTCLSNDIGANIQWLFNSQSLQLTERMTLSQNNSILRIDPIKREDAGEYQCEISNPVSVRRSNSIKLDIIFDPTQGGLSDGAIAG

B1: C15 (antibody, human IgG4 S228P, lambda, V domains shown)
VH: EVQLLESGGGLVQPGGSLRLSCAASGFTFSSYSMSWVRQAPGKGLEWVSSISPNGGNKYYADSVKGRFTISRDNSKNTLYLQMNSLGAEDTAVYYCAKDPYNIYQPLFDYWGQGTLVTVSS
VL: QSVLTQPLSASGTPGQRVTISCSGSSSNIGNNYVNWYQQLPGTAPKLLIYANSNRPSGVPDRFSGSKSGTSASLAISGLRSEEEADYYCGTWDASLSAYVFGGGTKLTVLG
B2: C19 (antibody, human IgG4 S228P, lambda, V domains shown)
VH: EVQLLESGGGLVQPGGSLRLSCAASGFTFSGYAMSWVRQAPGKGLEWVSGIYHDGGSTYYADSVKGRFTISRDNSKNTLYLQMNSLRAEDTAVYYCARVTVLCTTYGCSSYDGMDVWGQGTLVTVSS
VL: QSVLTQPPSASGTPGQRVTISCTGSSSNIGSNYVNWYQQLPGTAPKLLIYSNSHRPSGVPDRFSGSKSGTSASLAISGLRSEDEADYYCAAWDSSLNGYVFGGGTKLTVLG
B3: C18 (antibody, human IgG4 S228P, lambda, V domains shown)
VH: EVQLLESGGGLVQPGGSLRLSCAASGFTFSNYDMSWVRQAPGKGLEWVSGISHSSGSKYYADSVKGRFTISRDNSKNTLYLQMNSLRAEDTAVYYCARDPLPCLIPKCSYYYAMDVWGQGTLVTVSS
VL: QSVLTQPPSAPGTPGQRVTISCSGSSSNIGSNAVTWYQQLPGTAPKLLIYADSHRPSGVPDRFSGSKSGTSASLAISGLRSEDEADYYCGSWDDSLNAYVFGGGTKLTVLG
B4: C22 (antibody, human IgG4 S228P, lambda, V domains shown)
VH: EVQLLESGGGLVQPGGSLRLSCAASGFTFSDYDMSWVRQAPGKGLEWVSMIYSGSSSKYYADSVKGRFTISRDNSKNTLYLQMNSLRAEDTAVYYCAKAPLPFYFRPKSYYYAMDVWGQGTLVTVSS
VL: B3 VL with P11S, A33N, D52N, D94S
B5: C25 (antibody, human IgG4 S228P, lambda, V domains shown)
VH: EVQLLESGGGLVQPGGSLRLSCAASGFTFSNYAMSWVRQAPGKGLEWVSVISHGGGSIYYADSVKGRLTISRDNSKNTLYLQMNSLRAEDTAVYYCARDPTKGYAPTFDYWGQGTLVTVSS
VL: B1 VL with L8P, N35S, N52D, N54K, E83D, T91A, S97N, A98G
notes: Made in ExpiHEK293F cells, protein A purified. huIgG4 is the isotype control and anti-huIgG4 the detection reagent; the isotype is not otherwise stated; also called anti-CEACAM1 antibody C25
B6: C17 (antibody, human IgG4 S228P, lambda, V domains shown)
VH: EVQLLESGGGLVQPGGSLRLSCAASGFTFSDYSMSWVRQAPGKGLEWVSVIYPDDGNTYYADSVKGRFTISRDNSKNTLYLQMNSLRAEDTAVYYCARGSIWWLSLIPSSYNAMDVWGQGTLVAVSS
VL: B1 VL with L8P, Y33A, N54H, E83D, T91A, S97N, A98G
B7: C26 (antibody, human IgG4 S228P, lambda, V domains shown)
VH: EVQLLESGGGLVQPGGSLRLSCAASGFTFSGYDMSWVRQAPGKGLEWVSWISYGGGSIYYADSVKGRFTISRDNSKNTLYLQMNSLRAEDTAVYYCAKDRLPQKAVRHSYANGMDVWGQGTLVTVSS
VL: B3 VL with P11S, S31N, A33Y, S91A, D94Y, N97S, A98G

Changes are numbered by the printed parent chain.

For the first assay, the target named is T3, BSA (bovine, UniProt P02769).
T3 construct: blank antigen; also called BSA protein; bovine serum albumin
T3 sequence (P02769 25-607 limits assumed): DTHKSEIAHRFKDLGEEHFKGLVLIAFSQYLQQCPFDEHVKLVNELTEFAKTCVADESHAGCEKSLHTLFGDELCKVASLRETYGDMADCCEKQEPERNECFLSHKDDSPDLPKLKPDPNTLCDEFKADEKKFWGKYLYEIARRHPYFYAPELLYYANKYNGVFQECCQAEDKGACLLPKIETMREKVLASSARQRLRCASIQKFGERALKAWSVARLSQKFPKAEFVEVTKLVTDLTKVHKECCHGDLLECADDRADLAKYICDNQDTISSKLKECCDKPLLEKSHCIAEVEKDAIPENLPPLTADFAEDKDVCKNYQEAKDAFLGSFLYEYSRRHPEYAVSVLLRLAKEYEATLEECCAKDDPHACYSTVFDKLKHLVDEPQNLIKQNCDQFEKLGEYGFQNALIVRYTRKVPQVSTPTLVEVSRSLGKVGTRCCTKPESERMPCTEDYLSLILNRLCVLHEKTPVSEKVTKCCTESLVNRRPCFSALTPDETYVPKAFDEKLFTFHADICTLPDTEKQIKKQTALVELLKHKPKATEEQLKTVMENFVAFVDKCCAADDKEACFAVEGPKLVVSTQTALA
Kind of assay: ELISA on coated antigen (0.25 µg/ml), HRP anti-human IgG Fc, OD450. The source says: (§1) All of the recombinant human CEACAM-1/CD66a protein (R&D systems; Cat No. 2244-CM, HCCM1), recombinant human CEACAM-5/CD66e protein (R&D systems; Cat. No. 4128-CM, HCCM5), recombinant human CEACAM-6/CD66c protein (R&D systems; Cat. No. 3934-CM, HCCM6), recombinant human CEACAM-3/CD66d protein (Sino Biological; Cat. No. 11933-H08H, HCCM3), human B7-H5/Gi24/VISTA protein (Sino Biological; Cat. No. 13482-H08H, HVISTA), recombinant human CEACAM-1/CD66a protein Bulk (R&D systems; Cat. No. 2244-CM, HCCM1 (bulk)), recombinant human CEACAM1-N domain-Kappa protein (Mogam, in-house production, HCCM1-N domain-kappa), and BSA protein (2.5 μg each) were dissolved in 10 ml of PBS, respectively, and dispensed into a 96-well plate at 100 μl/well, which was incubated at 4° C. overnight. Thereafter, each well was treated with 300 μl of 1% (v/v) bovine serum albumin, and incubated at 37° C. for 1 hour.
(§2) The diluted antibodies were dispensed into each well coated with each protein at 100 μl/well, and incubated at 37° C. for 1 hour. Then, each well was washed 3 times with a washing buffer prepared by diluting 10 μl of Tween 20 (Sigma-Aldrich; Cat. No. P9146) in 990 μl of PBS. Thereafter, 2 μl of HRP-conjugated human anti-IgG-Fc antibody (anti-human IgG Fc, Sigma Cat. No. A0170) was diluted in 10 ml of PBS, added to the wells at 100 μl/well, and incubated for 1 hour.
(§3) After completion of the reaction, the wells were washed three times with the washing buffer, and 100 μl of TMB solution was added to each well to induce color development. Then, 100 μl of 2 M H₂SO₄ was added to each well to stop the reaction, and the absorbance was measured at a wavelength of 450 nm.
On to B1, for which the binding result was “no binding (tested: 3 µg/ml (single concentration))”.

For B2, the binding result is on record as “no binding (tested: 3 µg/ml (single concentration))”.

For B3, the binding result is listed as “no binding (tested: 3 µg/ml (single concentration))”.

As to B4, the binding result is “no binding (tested: 3 µg/ml (single concentration))”.

With B5, the binding result is “no binding (tested: 3 µg/ml (single concentration))”.

On to B6, for which the binding result is given as “no binding (tested: 3 µg/ml (single concentration))”.

As to B7, the binding result is “no binding (tested: 3 µg/ml (single concentration))”.

In a further assay the target is T4, HVISTA.
T4 construct: unrelated control antigen; also called human B7-H5/Gi24/VISTA protein (Sino Biological; Cat. No. 13482-H08H); not shown: the vendor's polyhistidine tag
T4 sequence (chain, as listed by the source limits assumed): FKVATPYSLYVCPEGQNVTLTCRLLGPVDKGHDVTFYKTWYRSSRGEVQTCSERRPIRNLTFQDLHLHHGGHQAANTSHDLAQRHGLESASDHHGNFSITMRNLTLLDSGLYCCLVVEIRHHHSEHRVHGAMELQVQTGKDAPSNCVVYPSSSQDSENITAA
The assay is described as above.
Excerpt: as §1, §2, §3
B1: the binding result was “no binding (tested: 3 µg/ml (single concentration))”.

For the molecule B2, the binding result was “no binding (tested: 3 µg/ml (single concentration))”.

For the molecule B3, the binding result is “no binding (tested: 3 µg/ml (single concentration))”.

On to B4, for which the binding result is on record as “no binding (tested: 3 µg/ml (single concentration))”.

Regarding B5, the binding result is on record as “no binding (tested: 3 µg/ml (single concentration))”.

In the case of B6, the binding result was “no binding (tested: 3 µg/ml (single concentration))”.

Consider B7, for which the binding result is listed as “no binding (tested: 3 µg/ml (single concentration))”.

The target in the next assay is T1, recombinant human CEACAM-6/CD66c …. Kind of assay: ELISA on coated antigen (0.25 µg/ml), HRP anti-human IgG Fab, OD450.
Excerpt: (§4) All of the recombinant human CEACAM-1/CD66a protein (R&D systems; Cat. No. 2244-CM, HCCM1), recombinant human CEACAM-5/CD66e protein (R&D systems; Cat. No. 4128-CM, HCCM5), recombinant human CEACAM-6/CD66c protein (R&D systems; Cat. No. 3934-CM, HCCM6), recombinant human CEACAM-3/CD66d protein (Sino Biological; Cat. No. 11933-H08H, HCCM3), recombinant mouse PD-1 Fc chimeric protein (R&D systems; Cat. No. 1021-PD, mPD-1-Fc), recombinant CEACAM1-Fc (IgG4) protein (Mogam, in-house production, HCCM1-Fc), recombinant human CEACAM-1/CD66a protein Bulk (R&D systems; Cat. No. 2244-CM, HCCM1 (bulk)) and mouse CEACAM1/CD66a protein (Sino Biological; Cat. No. 50571-M08H, mouse CCM1) (2.5 μg each) were dissolved in 10 ml of PBS, respectively and dispensed into a 96-well plate (Nunc; Cat. No. 467679) at 100 μl/well, which was incubated overnight at 4° C. Thereafter, each well was treated with 300 μl of 1% (v/v) bovine serum albumin, which was incubated at 37° C. for 1 hour.
(§5) The diluted antibodies were dispensed into each well coated with each protein at 100 μl/well, which was incubated at 37° C. for 1 hour. Then, each well was washed 3 times with a washing buffer prepared by diluting 10 μl of Tween 20 (Sigma-Aldrich; Cat. No. P9146) in 990 μl of PBS. Thereafter, 2 μl of HRP-conjugated human anti-IgG-Fab antibody (anti-human IgG Fab; Sigma; Cat. No. A0293) was diluted in 10 ml of PBS, added to the wells at 100 μl/well, and incubated for 1 hour.
as §3
On to B1, for which the binding result was “no binding (tested: 3 µg/ml (single concentration))”.

Consider B2, for which the binding result is reported as “no binding (tested: 3 µg/ml (single concentration))”.

For the molecule B3, the binding result is given as “no binding (tested: 3 µg/ml (single concentration))”.

As to B4, the binding result is recorded as “no binding (tested: 3 µg/ml (single concentration))”.

Regarding B5, the binding result was “no binding (tested: 3 µg/ml (single concentration))”.

Turning to B6, the binding result was “no binding (tested: 3 µg/ml (single concentration))”.

B7: the binding result was “no binding (tested: 3 µg/ml (single concentration))”.

In the next assay the target is T2, mCCM1. The assay is described as above.
Excerpt: as §4, §5, §3
Regarding B1, the binding result is reported as “no binding (tested: 3 µg/ml (single concentration))”.

As for B2, the binding result is reported as “no binding (tested: 3 µg/ml (single concentration))”.

As to B3, the binding result was “no binding (tested: 3 µg/ml (single concentration))”.

In the case of B4, the binding result is recorded as “no binding (tested: 3 µg/ml (single concentration))”.

For B5, the binding result is listed as “no binding (tested: 3 µg/ml (single concentration))”.

For the molecule B6, the binding result is “no binding (tested: 3 µg/ml (single concentration))”.

In the case of B7, the binding result is “no binding (tested: 3 µg/ml (single concentration))”.
